From the nanobody polyreactivity screen of Harvey et al. (2022)

Experiment: yeast display, Sf9 membrane polyspecificity reagent, FACS + sequencing; frameworks hold sequencing errors
In short: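 Polyreactivity labels are assigned by the sorting gate from which each nanobody was recovered. The gates were low and high (top ~1%), set on anti-HA fluorescence for expression and streptavidin fluorescence for reagent binding. Before sorting, galactose-induced (36–48 hours) yeast display cells were stained for 1 hour at 4 °C with 10% biotinylated, detergent-solubilized Sf9 membrane reagent.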

Sequence	polyreactivity (PSR sort gate)
QVQLVESGGGLVQAGGSLRLSCAASGIILAFNAMGWYRQAPGKEREFVASISQGGSSTYYADSVKGRFTISRDYAKNTVYLQMNSLKPEVTAVYFCAARSSRVRSPYQRYYYWGQGTQVTVSS	high polyreactivity
QVQLVESGGGLVQAGGSLRLSCAASGIILDPNAMGWYRQAPGKEREMVAGITRSGVSTYYADSVKGRFTISRDNAKNTVYLQMNSLKPEDTAVYYCANDRIYGSKGEDDDYWGQGTQVSVSS	low polyreactivity
QVQLVESGGGLVQAGGSLRLSCAASGIILFYAMGWYRQAPGKERELVAAISSGGGTSYADSVKGRFTISRDNAKNTVYLHMNSLKPEDTAVYYCNADGYSYFWYPSYARGHDYWGQGTQVTVSS	low polyreactivity
QVQLVESGGGLVQAGGSLRLSCAASGIILGKNAMGWYRQAPGNERELVASITSGAGITYYADSVKGRFTISRDNAKNTVNLQINSLKPEDTAVYYCAADWSGDYFTDGYWGQGPQVTVSS	low polyreactivity
QVQLVESGGGLVQAGGSLRLSCAASGIILGYYAMGWYRQAPGKERELVAAITRSGGRTYYADSVKGRFTISRDNAKNTVYLQMNSLKPEDTGVYYCAADDPYTPQYPDVTYDYWGQGTQVTVSS	high polyreactivity
QVQLVESGGGLVQAGGSLRLSCAASGIILPWNAMGWYRQAPGKERELVAAISWSGTSTYYADSVQGRFTISRDNAKNTVYLQMNSLKPEDTAVYYCAAAYWWSWRYDYWGQGTQVTVSS	low polyreactivity
QVQLVESGGGLVQAGGSLRLSCAASGIILQSYTMGWYRQAPGKERELVAALTKSGGRTYYADSVKGRFTISRDNAKNTVYLQMNSLKPEDTAVYYCAAPLSYSYDYSGQGTQVTVSS	high polyreactivity
QVQLVESGGGLVQAGGSLRLSCAASGIILRYYAMGWYRQAPGKEREMVAAISYSGGRTYYADSVKGRFTISRDNAKNTVYLQMNSLKPEDTAVYYCAADYGYRIIASYDYWGQGTQVTVSS	high polyreactivity
QVQLVESGGGLVQAGGSLRLSCAASGIILSPYTMGWYRQAPGKERELVAGISRSGGTTYYADSVKGRFTISRDNAKNTVYLQMNSLKPEDTAVYYCAAGLIYGYSGYDSWGQGTQVTVSS	low polyreactivity
QVQLVESGGGLVQAGGSLRLSCAASGIILTQNAMGWYRQEPGKVRELVAAITESGARTYYADSVMGRFTISRDTAQNTVYLQMNSLKPEATAVYYCATEGPWGYDYWGIGTQVTVSS	low polyreactivity
QVQLVESGGGLVQAGGSLRLSCAASGIILYRNGMGWYRQAPGKERELVAVISRRGGTYYADSVKGRFTISRDNAKITVYLQLNSLKPEDTAVYYCAAYLSPIGNFRGGGDYWGQGTQVTVSS	high polyreactivity
QVQLVESGGGLVQAGGSLRLSCAASGIISAGYAMGWYRQAPGKERELVAAISTSGTSTYYADSVKGRFTISRDNAKNTVYLQMNSLKPEDTAVYYCAYTYYYGVGYYYWGQGTQVTVSS	low polyreactivity
QVQLVESGGGLVQAGGSLRLSCAASGIISIFNVMGWYRQAPGKERELVASITGRGGSTFYADSVKGRFTISRDNAKNTDYLQLNSLIPEDTAVYYCATDTGYTYPVTGLYDYWGQGTQVTVSS	low polyreactivity
QVQLVESGGGLVQAGGSLRLSCAASGIISRYYAMGWYRQAPGKERELVASISSGVGTNYADSVKGRFTISRDNAKNTVYLQMNSLKPEDTAVYYCAARFRYYRHYYWGQGSQVTVSS	high polyreactivity
QVQLVESGGGLVQAGGSLRLSCAASGIISSVYAMGWYRQAPGKERELVAAISGSGGSTYYADSVKGRFTISRDNAKNTVYLQMNSLKPEDTAVYYCAKGYQYQGNSYGYWGQGTQVTVSS	low polyreactivity
QVQLVESGGGLVQAGGSLRLSCAASGIISTYYVMGWYRQAPGKERELVAAITGGDTSTYYADSVKGRFTISRDNAKKTVYLQMNSLKPEDTADYYCAKEYYYARGARYDYWGQGTQVTVSS	low polyreactivity
QVQLVESGGGLVQAGGSLRLSCAASGIISTYYVMGWYRQAPGKERELVAAITGGGTYYADSVKGRFTISRDNAKNTVYLQMNSLKPEDTAVYYCAVDGTYAYGYSRDYDYWGQGTQVTVSS	low polyreactivity
